In patent US5972656:

Legend:
[1] = target: BSA-glutathione (bovine) (UniProt P02769); assay: ELISA, subclone culture fluid on BSA-glutathione, average of triplicates
[2] = target: BSA-glutathione (bovine) (UniProt P02769); assay: ELISA, culture supernatant on BSA-GSH plates without mercury
[3] = target: BSA-glutathione (bovine) (UniProt P02769); assay: ELISA, culture fluid on glutathione-BSA (column Glutathione)

| Binder | absorbance at 405 nm (absorbance at 405 nm) [1] | absorbance at 405 nm (absorbance at 405 nm) [2] | absorbance at 405 nm (absorbance at 405 nm) [3] |
| --- | --- | --- | --- |
| monoclonal antibody 4A10 (antibody, V domains shown) VH: EVQLQQSGPELVKPGALVKISCKASGYTFTSYDINWVKQRPGQGLEWIGWIYPGDGSTKYNEKFKGKATLTADKSSSTAYMQLSSLTSENSAVYFCARCGYAMDYWGQGTSVTVSS VL: DVLMTQTPLSLPVSLGDQASISCRSSQSIVHSNGNTYLEWYLQKPGQSPKLLIYKVSNRFSGVPDRFSGSGSGTDFTLKISRAEAEDLGVYYCFQGSHVRYTFGGGTKLEIK | 0.322 | 0.078 | 0.4 |
| monoclonal antibody 1C11 (antibody, V domains shown) VH: SGAELVKPGASVKLSCKTSGYTVTSYWMGWVKQRPGQGLEWIGNIYPDSGTTNYNEKFKNKATLTVDTFSSTVYMQLSSLTSEDSAVYYCARGVYSYYSYDVYAMDYWGQGTSVTVSS VL: DLVLTQSPPSLAVSLGQRSTISCRSSQSIVHSNGNTYLHWYQQNPGQPPKLLIKYASNLESGVPARFSGSGSGTDFTLNIHPAEVEDSATYFCQHSWEIPPTFGGGTKLEIK |  | 0.094 |  |
| monoclonal antibody 2D5 (antibody, V domains shown) VH: SGGGSVKPGGSLKLSCAASGFTFSSCAMSWVRQTPEKRLEWVATISSGGSYTYYPDSVKGRFTIFRHNAENTLYLQMSSLRSEDTAIYYCVRQDGYYGNYVWFAYWGQGTLVTVSA VL: ELVMTQSPASLSASVGETVTITCRASENIYGYLAWYQQKQGKSPLPRVYNAKTLAEDVSSRVSGSGSGTQFSLKIRTSQPEDFGTYYCQHHYGTPYTFGGGTKLEIK |  | 0.09 |  |
| monoclonal antibody 5B6 (antibody, V domains shown) VH: SGGGSVKPGGSLKLSCAASGFTFSSRAMSWVRQTPEKRLEWVATISSGGSYTYYPDSVKGRFTISRHNAENTLYFQMSSLRSEDTAIYYCVRQTGYYGNYEWFAYWGQGLLVTVSA VL: DIQMTQSPSSLSASLGERVTLTCRASQDIGSSLNWLQLKPDGTIKRLIYATSGLDSGVPKRFSGSRSGSDYSLTINSPESEDFVDYYCLQCSNSPYTFGGGTKLEIN |  | 0.019 |  |
| monoclonal antibody 5G4 (antibody, V domains shown) VH: SVPARLKPGASVRISCKASAYSFTGYFMNWMKQSHGKTLEWIGRINPYNGDTFYNQKFKSKATVTVDKSSSTAHMELLSLTSEDSAVYYCGTQPLDYWGQGTTLTVSS VL: DIQMTQSPSSLSASLGERVTLTCRASQDIGSSLNWLQLKPDGTIKRLIYATSGLDSGVPKRFSGSRSGSDYSLTINSPESEDFVDYYCLQCSNSPYTFGGGTKLEIK |  | 0.028 |  |
| monoclonal antibody 23F8 (antibody, V domains shown) VH: SGPELVKTGASVKISCKASGYSFTGYYMHWVKQSHGKSLEWIGYISCYNGATSYNQKFKGKATFTVDTSSSTAYMQFNSLTSEDSAVYYCARSGIYDVTTTLTTGAKAPLSQSP VL: DIQMTQSPSSLSASLGGKVTITCKASQDINKYIAWYQHKPGKGPRLLIHYTSTLQPGIPSRFSGSGSGRDYSFSISNPEPEDIATYYCLQYDNSLFTFGSGTKLEIK |  | 0.168 |  |
